Experimental findings from article PMC8336959 are described below.

The assay has as its target Atto488-labeled GRB2-SH2 domain (UniProt P62993). The assay can be described thus: MST.

Sequence of Atto488-labeled GRB2-SH2 domain (P62993 60-152): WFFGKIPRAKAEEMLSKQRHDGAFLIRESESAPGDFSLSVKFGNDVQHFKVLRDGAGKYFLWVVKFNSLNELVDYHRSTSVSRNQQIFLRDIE

By Kd is commonly meant the equilibrium constant for the complex coming apart. In the case of “Dual-phosphorylated H2AX (pH2AX) peptide”, the Kd is 2800 nM.
